In the assay the target is PP1C in 3T3-L1 adipocyte lysates (mouse (endogenous in 3T3-L1 adipocytes)). The experiment in a line: GST-PTG added to 3T3-L1 adipocyte lysates, fractionation, PP1 activity in the glycogen pellet.

Results on 1 substance are retold here after patent publication US6252057.

In the case of GST-PTG fusion protein, the fold increase in the PP1 activity sedimenting with the glycogen pellet is 8 fold.
